# Measurements: patent US20250075249A1 (QUEENSLAND UNIVERSITY OF TECHNOLOGY, published 2025)
# B1: FRB-CaM-BP (fusion of FRB and a low affinity calmodulin binding peptide) (other)
# chain: AHHHHHHSSGTRVAILWHEMWHEGLEEASRLYFGERNVKGMFEVLEPLHAMMERGPQTLKETSFNQAYGRDLMEAQEWCRKYMKSGNVKDLTQAWDLYYHVFRRISGGSGGSGSGSGGSGGKRRWKKNFIAVSAANR
# How the values were obtained:
# Assay in all cases: cell-based or functional assay
# FKBP-2CaM-BLA-FKBP = biological target: FKBP-2CaM-BLA-FKBP
# [1] = biological target: FKBP-2CaM-Tre-FKBP fusion protein
# [2] = biological target: Tre G104_P321 CaM chimera
binder,measurement,setting,value
B1,"apparent Kd from titration with rapamycin (small molecule varied; 25 nM BLA-2CaM-2FKBP, 100 nM FRB-CaM-BP; β-lactamase activity)",FKBP-2CaM-BLA-FKBP,11 nM
same,"apparent Kd from titration with rapamycin (small molecule varied; 100 nM 2FKBP-Tre-2CaM, 200 nM FRB-CaM-BP; trehalase activity)",[1],89 nM
"KRRWKKNFIAVSAANRFKKISSSGAL (peptide, UniProt P07313 578-603, looked up) [M13 calmodulin binding peptide]",EC50 (read off the curve),[2],~60 nM
